Tests used:
Experiment in all cases: cell-based or functional assay
[1] = molecular target: FRB.FKBP.ΔC9 encoded by pBP1310 (pSFG.FRB.FKBP.ΔC9.T2A-ΔCD19)
[2] = molecular target: Non-myristoylated inducible MyD88/CD40 with two FKBP12v36 domains, encoded by pBP0606 (pSFG-k-ΔMyr.iMC.2A-ΔCD19) (human)
[3] = molecular target: First generation CD19-CAR fused to two tandem FRBl domains, co-expressed with inducible Caspase-9
[4] = molecular target: First generation Her2-CAR fused to two tandem FRBl domains
[5] = molecular target: Four tandem FKBP12 (Fpk) domains encoded by pBP0722 (pSH1-Fpk-Fpk′.LS.Fpk″.Fpk′″.LS.HA) (Homo sapiens (Human)) (UniProt P62942)
[6] = molecular target: FKBP.FRB.ΔC9 encoded by pBP1311 (pSFG.FKBP.FRB.ΔC9.T2A-ΔCD19)
[7] = molecular target: MyD88-CD40 fused to wild-type FKBP12 and FRBL, encoded by pBP1440
[8] = molecular target: FKBP12v36-ΔCaspase-9 encoded by the retroviral vectors pSFG-iC9.T2A-ΔCD19 (pBP0220) and its FRBL derivatives pBP0755, pBP0756, pBP0757 (human)
[9] = molecular target: Four tandem FRBL domains encoded by pBP0725 (pSH1-FRBl.FRBl′.LS.FRBl″.FRBl′″)
Sequence of Four tandem FRBL domains encoded by pBP0725 (pSH1-FRBl.FRBl′.LS.FRBl″.FRBl′″) (chain, as listed by the source limits assumed): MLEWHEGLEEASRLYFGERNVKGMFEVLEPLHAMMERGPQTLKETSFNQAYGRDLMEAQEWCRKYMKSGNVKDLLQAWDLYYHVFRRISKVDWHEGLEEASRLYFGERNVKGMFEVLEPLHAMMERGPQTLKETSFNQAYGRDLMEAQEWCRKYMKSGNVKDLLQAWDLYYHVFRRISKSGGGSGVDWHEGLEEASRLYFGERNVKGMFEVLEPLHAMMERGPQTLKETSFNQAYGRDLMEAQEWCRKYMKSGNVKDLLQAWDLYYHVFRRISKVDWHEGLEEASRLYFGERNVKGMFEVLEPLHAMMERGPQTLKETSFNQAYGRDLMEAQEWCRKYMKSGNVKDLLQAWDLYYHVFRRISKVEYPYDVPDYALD

Sequence of FKBP.FRB.ΔC9 encoded by pBP1311 (pSFG.FKBP.FRB.ΔC9.T2A-ΔCD19) (chain): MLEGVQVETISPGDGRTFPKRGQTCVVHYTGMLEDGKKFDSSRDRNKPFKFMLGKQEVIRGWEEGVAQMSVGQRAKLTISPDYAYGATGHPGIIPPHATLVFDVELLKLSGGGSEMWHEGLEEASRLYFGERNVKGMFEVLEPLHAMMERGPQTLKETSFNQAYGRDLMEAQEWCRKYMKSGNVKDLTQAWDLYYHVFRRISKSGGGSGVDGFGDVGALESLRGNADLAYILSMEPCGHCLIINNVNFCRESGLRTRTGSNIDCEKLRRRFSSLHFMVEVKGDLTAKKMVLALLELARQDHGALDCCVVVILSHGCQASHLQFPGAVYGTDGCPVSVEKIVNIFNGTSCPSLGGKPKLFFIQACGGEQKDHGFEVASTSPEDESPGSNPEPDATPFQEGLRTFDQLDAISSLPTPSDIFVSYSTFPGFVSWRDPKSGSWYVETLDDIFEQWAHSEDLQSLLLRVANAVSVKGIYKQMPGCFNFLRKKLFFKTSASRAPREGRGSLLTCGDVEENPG
Sequence of MyD88-CD40 fused to wild-type FKBP12 and FRBL, encoded by pBP1440 (chain): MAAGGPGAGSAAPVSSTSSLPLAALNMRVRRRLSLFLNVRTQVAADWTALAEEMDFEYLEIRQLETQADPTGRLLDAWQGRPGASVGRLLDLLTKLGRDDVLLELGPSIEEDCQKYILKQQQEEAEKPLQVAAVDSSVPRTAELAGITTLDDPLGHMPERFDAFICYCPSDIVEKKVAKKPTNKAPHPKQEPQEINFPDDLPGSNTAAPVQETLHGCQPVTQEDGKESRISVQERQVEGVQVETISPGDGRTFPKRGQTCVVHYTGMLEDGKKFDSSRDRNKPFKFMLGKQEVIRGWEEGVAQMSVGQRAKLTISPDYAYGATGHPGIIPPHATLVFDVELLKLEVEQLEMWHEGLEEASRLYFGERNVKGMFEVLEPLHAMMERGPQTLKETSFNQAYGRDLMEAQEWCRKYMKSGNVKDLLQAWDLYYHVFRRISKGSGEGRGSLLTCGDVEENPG
Sequence of FRB.FKBP.ΔC9 encoded by pBP1310 (pSFG.FRB.FKBP.ΔC9.T2A-ΔCD19) (chain): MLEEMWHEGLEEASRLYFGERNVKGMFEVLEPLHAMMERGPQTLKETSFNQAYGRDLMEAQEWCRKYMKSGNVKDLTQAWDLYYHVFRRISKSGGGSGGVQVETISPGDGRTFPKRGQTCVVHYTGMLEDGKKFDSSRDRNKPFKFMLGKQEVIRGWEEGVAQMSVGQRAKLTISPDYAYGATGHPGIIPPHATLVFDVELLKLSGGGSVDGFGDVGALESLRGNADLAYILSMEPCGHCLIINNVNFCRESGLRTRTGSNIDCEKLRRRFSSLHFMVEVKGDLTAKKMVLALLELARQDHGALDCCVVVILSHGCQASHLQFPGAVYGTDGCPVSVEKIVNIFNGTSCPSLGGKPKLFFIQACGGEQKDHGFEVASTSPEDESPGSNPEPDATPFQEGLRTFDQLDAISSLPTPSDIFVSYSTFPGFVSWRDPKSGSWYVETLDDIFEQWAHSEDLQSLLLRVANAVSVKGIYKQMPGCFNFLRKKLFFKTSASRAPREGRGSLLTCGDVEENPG
Sequence of Two FRBL domains fused to ΔCaspase-9, encoded by pBP0668 (pSFG-FRBlx2.Caspase9.2A-Q.8stm.CD3zeta) (chain): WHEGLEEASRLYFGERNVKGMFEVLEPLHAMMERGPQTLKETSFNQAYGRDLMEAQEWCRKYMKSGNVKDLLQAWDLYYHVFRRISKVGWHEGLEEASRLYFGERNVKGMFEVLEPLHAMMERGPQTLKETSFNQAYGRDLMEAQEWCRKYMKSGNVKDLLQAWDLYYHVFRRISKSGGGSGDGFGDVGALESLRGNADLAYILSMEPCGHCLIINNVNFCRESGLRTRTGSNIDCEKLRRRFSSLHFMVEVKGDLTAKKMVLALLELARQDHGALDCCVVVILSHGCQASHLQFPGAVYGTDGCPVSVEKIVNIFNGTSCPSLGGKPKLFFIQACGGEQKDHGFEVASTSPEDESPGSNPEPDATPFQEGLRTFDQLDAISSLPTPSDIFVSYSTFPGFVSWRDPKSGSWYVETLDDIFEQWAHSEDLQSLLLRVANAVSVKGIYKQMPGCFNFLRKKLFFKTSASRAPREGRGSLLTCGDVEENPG
Sequence of Non-myristoylated inducible MyD88/CD40 with two FKBP12v36 domains, encoded by pBP0606 (pSFG-k-ΔMyr.iMC.2A-ΔCD19) (human) (chain, as listed by the source mutant limits assumed): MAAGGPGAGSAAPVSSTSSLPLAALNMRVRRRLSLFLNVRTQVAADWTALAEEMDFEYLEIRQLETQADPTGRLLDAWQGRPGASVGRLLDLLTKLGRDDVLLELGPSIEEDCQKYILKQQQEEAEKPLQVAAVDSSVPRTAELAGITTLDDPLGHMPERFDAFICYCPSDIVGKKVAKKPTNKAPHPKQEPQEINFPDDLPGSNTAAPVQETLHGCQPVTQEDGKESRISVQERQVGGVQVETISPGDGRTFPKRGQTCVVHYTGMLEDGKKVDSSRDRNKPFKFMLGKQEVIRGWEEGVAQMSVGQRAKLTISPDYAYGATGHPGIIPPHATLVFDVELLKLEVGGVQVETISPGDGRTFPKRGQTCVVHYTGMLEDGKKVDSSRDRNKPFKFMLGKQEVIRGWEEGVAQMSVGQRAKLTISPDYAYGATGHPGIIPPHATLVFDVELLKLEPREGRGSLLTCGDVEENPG

## FRB.FKBP.ΔC9 encoded by pBP1310 (pSFG.FRB.FKBP.ΔC9.T2A-ΔCD19)
[1]
  lowest rapamycin concentration with high activity (caspase 3/7 IncuCyte assay and SRα-SEAP assay), transfected 293 cells: 100 pM

## Two FRBL domains fused to ΔCaspase-9, encoded by pBP0668 (pSFG-FRBlx2.Caspase9.2A-Q.8stm.CD3zeta)
[2]
  rapamycin level giving elimination of CD34+CD19+ doubly transduced primary T cells (flow cytometry, 24 h): 2 nM

## Inducible Caspase-9 (FKBP-tagged Caspase-9) as used in Example 17
[3]
  decrease of constitutive SRα-SEAP activity with rapamycin, transfected 293 cells (% decrease of SEAP activity): 50
[4]
  decrease of constitutive SRα-SEAP activity with rapamycin, transfected 293 cells (% decrease of SEAP activity): 50

## FRBL-ΔCaspase-9 fusion encoded by pBP0463 (pSH1-FRBL.dCaspase9.T2A)
[5]
  IC50 of rapamycin or C7-isopropoxy-rapamycin for loss of constitutive SRα-SEAP reporter activity (cell death), transfected 293 cells: 3 nM

## FKBP.FRB.ΔC9 encoded by pBP1311 (pSFG.FKBP.FRB.ΔC9.T2A-ΔCD19)
[6]
  lowest rapamycin concentration with high activity (caspase 3/7 IncuCyte assay and SRα-SEAP assay), transfected 293 cells: 100 pM

## MyD88-CD40 fused to wild-type FKBP12 and FRBL, encoded by pBP1440
[7]
  EC50 of rapamycin or isobutyloxyrapamycin in the NF-κB SeAP reporter assay, transfected 293T cells: < 1 nM

## FKBP12v36-ΔCaspase-9 encoded by the retroviral vectors pSFG-iC9.T2A-ΔCD19 (pBP0220) and its FRBL derivatives pBP0755, pBP0756, pBP0757
[8]
  rapamycin concentration without effect in the SRα-SEAP assay, transfected 293 cells: > 1000 nM

## FKBP12v36-ΔCaspase-9 fusion encoded by pBP0044 (pSH1-iCaspase9wt)
[9]
  IC50 of rapamycin or C7-isopropoxy-rapamycin for loss of constitutive SRα-SEAP reporter activity (cell death), transfected 293 cells: 3 nM
